Measurements from article PMC11452484 (Nature Communications, 2024).

Target: the molecule itself
Assay: cryo-EM structure

Protein | stoichiometry N | binding result
G. sulfurreducens SPARSA complex (short pAgo/Sir2-APAZ heterodimer) (complex) chain 1: not shown chain 2: MDVLTDNEFYQHYLQNSQHMMWFLGAGTSRSAGLPTASDIIWDLKHRYYCLHENQDYQKHDINNHAIKSKIQSYMDSKGFPLQWSPEEYSFYFELVFRDDYEAQRKYLLEALASRKVSLNIGHRVLAALLEMNQTKVVFTTNFDDVIETAFSDISGKHLSVYHLEGSYAALSALNTEAFPIYAKIHGDFRYQKIKNLTPDLQTNDREIHKCFLAAAIRFGLVVSGYSGRDENVMTMLRAAIDQNNAFPHGLYWTVPSISKSEPAVQDLITYAQGKGVRAYLVETGTFDEMLSKIWRQVKDKPAAIDAKVRTARVCPVSIPLPGPGKSFPALRTNALPVVTQSIRCGVVTLASPITFSELKERISQKSPKALLTYTEKVLFLGGEPEIRKIFSNDEINSIGQYYIDEIAQSVAASTFLKSFVEEAILTALLREKPILHRVRHRTHYAVIPNASAKDDRFLDLRKAVGFKGDLGYITGNVTNAKELSWAEAVSIRLEERGGKLWIMLKPEIWIKPLDRREEATDFIRSRRRYRFNQCSYQILDAWIKILFGSIGGGGTVNISCFPDAEFKAEFEIGTRTAFSLGVGYGR | 4 | 
Geobacter sulfurreducens Sir2-APAZ (natural protein, UniProt Q74DF6 1-587, looked up) MDVLTDNEFYQHYLQNSQHMMWFLGAGTSRSAGLPTASDIIWDLKHRYYCLHENQDYQKHDINNHAIKSKIQSYMDSKGFPLQWSPEEYSFYFELVFRDDYEAQRKYLLEALASRKVSLNIGHRVLAALLEMNQTKVVFTTNFDDVIETAFSDISGKHLSVYHLEGSYAALSALNTEAFPIYAKIHGDFRYQKIKNLTPDLQTNDREIHKCFLAAAIRFGLVVSGYSGRDENVMTMLRAAIDQNNAFPHGLYWTVPSISKSEPAVQDLITYAQGKGVRAYLVETGTFDEMLSKIWRQVKDKPAAIDAKVRTARVCPVSIPLPGPGKSFPALRTNALPVVTQSIRCGVVTLASPITFSELKERISQKSPKALLTYTEKVLFLGGEPEIRKIFSNDEINSIGQYYIDEIAQSVAASTFLKSFVEEAILTALLREKPILHRVRHRTHYAVIPNASAKDDRFLDLRKAVGFKGDLGYITGNVTNAKELSWAEAVSIRLEERGGKLWIMLKPEIWIKPLDRREEATDFIRSRRRYRFNQCSYQILDAWIKILFGSIGGGGTVNISCFPDAEFKAEFEIGTRTAFSLGVGYGR |  | binds
